Substitutions are numbered along the chain they refer to. Numbers in names are those of the source.
B1: wt APX: pea cytosolic ascorbate peroxidase (Pisum sativum), wild type, about 28 kD, dimeric (protein, listed as Pisum sativum)
chain: MGKSYPTVSPDYQKAIEKAKRKLRGFIAEKKCAPLILRLAWHSAGTFDSKTKTGGPFGTIKHQAELAHGANNGLDIAVRLLEPIKEQFPIVSYADFYQLAGVVAVEITGGPEVPFHPGREDKPEPPPEGRLPDATKGSDHLRDVFGKAMGLSDQDIVALSGGHTIGAAHKERSGFEGPWTSNPLIFDNSYFTELLTGEKDGLLQLPSDKALLTDSVFRPLVEKYAADEDVFFADYAEAHLKLSELGFAEA
B2: mAPX: double mutant K14D/E112K of pea APX (SEQ ID NO:1), monomeric (protein, listed as Pisum sativum)
chain: B1 chain with K14D, E112K

What was measured:
[1] = tested on: HEK cells; assay: DAB staining of transfected cells (brightfield); type: cell-based; details: for DAB staining activity in mitochondrial matrix: mitochondrial matrix-targeted constructs, HEK cells
Method: Next, the activity of wt APX and mAPX was compared in mammalian cells.
(§1) To generate a monomeric APX with improved activity, the two mAPX mutations (K14D/E112K) were added to each of the activity-enhanced mutants. […] The sextuple mutant (K14D, E112K, W41F, D133A, T135F, K136F=mAPX−FFAF), was compared to mAPX+W41F within cells. HEK cells were transfected with constructs targeted to the mitochondrial matrix (Table 3), while COS-7 cells were transfected with constructs fused to the C-terminus of connexin 43 (Table 3). After fixation, the cells were treated with DAB and H2O2 to generate DAB polymer. […] After fixation, cells were stained with anti-Flag (for matrix) or anti-myc (for connexin) antibody to visualize peroxidase expression levels. […] Therefore mAPX+W41F (K14D/E112K/W41F) was selected, denoted as “APEX” (for Enhanced APX), as the optimized reporter for subsequent experiments.
A solution of 4% formaldehyde (freshly depolymerized from paraformaldehyde) with 2% glutaraldehyde in 10 mM phosphate buffered saline (PBS) was added to cells 24 hours after transfection. Cells were treated for 3 min at room temperature, then 30 min on ice. Cells were then washed 5×2 min using ice cold 10 mM PBS. Cells were blocked with 20 mM glycine for 5 min on ice. Cells were then washed 5×2 min with ice-cold 10 mM PBS. Cells were then treated with an ice-cold solution of DAB (0.5 mg/mL) and H2O2 (0.03%) in 10 mM PBS for 20 min. Cells were then washed 5×2 min with ice-cold 10 mM PBS. Cells were treated with 2% OsO4 in ice-cold 10 mM PBS for 30 min, then washed 5×2 min with ice-cold distilled deionized water. Cells were then placed under ice-cold 2% aqueous uranyl acetate for 24 hours.
(§2) Any cell displaying detectable GFP fluorescence was considered transfected. Contact sites between neighboring transfected cells were identified using DIC imaging. Gap junctions were identified as lines of GFP fluorescence unambiguously overlaying with the plasma membrane of two transfected cells based on DIC. DAB stain intensity for APX-NES variants was analyzed using SlideBook. Transfected cells were identified by nuclear YFP fluorescence. In each transfected cell, a representative DAB-stained region was encircled, and its average brightfield intensity was calculated. Background intensity, determined for each field of view by encircling a representative region in the cytosol of an untransfected cell, was subtracted out. The bar graph in FIG. 2c represents mean data from >60 transfected cells.

[2] = Guaiacol activity assay (Michaelis-Menten kinetics); type: biochemical; details: guaiacol as substrate, purified enzyme
Method: Data points represent the mean±standard deviation of 2-3 independent measurements. Initial rates are shown as a function of guaiacol concentration. H2O2 concentration was 90 μM, and enzyme concentration was 20 nM in all trials. Oxidation to tetraguaiacol was monitored by absorbance at 470 nm (ε470=22×10^3 M^−1 cm^−1)^2.
High activity toward guaiacol generally correlated well with robust polymerization of DAB in vitro. Guaiacol assays were performed on a Nanodrop 2000c UV-vis spectrophotometer (Thermo Scientific) using its cuvette reader. HRP (Sigma) was prepared as a 10 μM stock in PBS, flash frozen and stored at −80° C., and thawed immediately before use. Guaiacol peroxidase activity was measured according to the protocol of Lad et. al.^35 Oxidation to tetraguaiacol was monitored by absorbance at 470 nm (ε470=22×10^3 M^−1 cm^−1). Kcat and KM were calculated by nonlinear regression fitting to the Michaelis-Menten equation using OriginPro (OriginLab Corporation). All values are reported as the mean±standard deviation for 2-3 independent Michaelis-Menten fittings, with each fitting using at least 5 values of substrate concentration ranging between 0.25 and 30 mM.
In order to improve the performance of mAPX in mammalian cells, monomeric APX was engineered with improved activity toward DAB in the hope that faster kinetics could compensate for diminished heme binding. The substrate binding site of APX was compared to that of HRP, which has faster kinetics and broader aromatic substrate tolerance (Henriksen, et. al., Journal of Biological Chemistry 274, 35005-35011 (1999)). In order to make APX more HRP-like, seven mutants of APX were designed that incorporated mostly aromatic residues into the active site (FIG. 5a). A colorimetric assay was employed using guaiacol, a prototypical aromatic peroxidase substrate, to determine Michaelis-Menten parameters (Kumar, et. al., Journal of Cell Science 108, 3725-3734 (1995); Henriksen, et. al., Journal of Biological Chemistry 274, 35005-35011 (1999)) (FIG. 5b and FIG. 10). […]

[3] = tested on: connexin43 (Cx43); assay: Connexin43 fusion localization to gap junctions; type: cell-based, rat; details: fused to connexin43
Method: Both mAPX and wt APX were fused to connexin43 (Cx43), a protein that is sensitive to oligomeric tags (FIG. 4d) (McKinney, et. al., Nat Meth 6, 131-133 (2009); Lauf, et. al., FEBS letters 498, 11-15 (2001)).
as §1, §2

Molecule	DAB staining activity in mitochondrial matrix [1]	activity in vitro (guaiacol) [2]	localization of connexin43 fusion / gap junction formation [3]	activity toward DAB (DAB stain) ([1]; expressed throughout the cytosol via NES fusion)
B1	comparably active	equally active	abnormal retention inside cells	
B2	comparably active	equally active		less active than wt APX
